Experimental data taken from patent US9187525B2, “Methods of treating ophthalmic diseases using NPR-B agonists” (Shire Orphan Therapies GmbH, dated 2015).
Numbered stars: 1 amine (or outer) side, 2 acyl side, 3 side chain; on linkers, the order of the positions; unused ones are H or OH. Square brackets hold non-standard residues; d marks the D form. Primed or numbered codes have the meaning given here. * marks the point of attachment. Pro(trans-4-NH2) = O=C([C@@H]1C[C@@H](N[*:3])CN1[*:1])[*:2]; Sni = (S)-nipecotic acid, O=C([C@H]1CCCN([*:1])C1)[*:2]; Pro(trans-4-Ph) = O=C(O)[C@@H]1C[C@@H](c2ccccc2)CN1; Cpp = rac-(3R,4S)-cis-methanoproline; dDap(Me2) = CN(C)C[C@@H](N)C(=O)O; Hyp = O=C(O)[C@@H]1C[C@@H](O)CN1; NMeL = CN[C@@H](CC(C)C)C(=O)O; Ac6c = NC1(C(=O)O)CCCCC1; Octanoyl = CCCCCCCC(=O)*; Thz = O=C(O)[C@@H]1CSCN1; Api = NC1(C(=O)O)CCNCC1; Pip′ = not defined here; dAze = O=C(O)[C@H]1CCN1

T1: natriuretic peptide receptor-B (human)
T1 chain: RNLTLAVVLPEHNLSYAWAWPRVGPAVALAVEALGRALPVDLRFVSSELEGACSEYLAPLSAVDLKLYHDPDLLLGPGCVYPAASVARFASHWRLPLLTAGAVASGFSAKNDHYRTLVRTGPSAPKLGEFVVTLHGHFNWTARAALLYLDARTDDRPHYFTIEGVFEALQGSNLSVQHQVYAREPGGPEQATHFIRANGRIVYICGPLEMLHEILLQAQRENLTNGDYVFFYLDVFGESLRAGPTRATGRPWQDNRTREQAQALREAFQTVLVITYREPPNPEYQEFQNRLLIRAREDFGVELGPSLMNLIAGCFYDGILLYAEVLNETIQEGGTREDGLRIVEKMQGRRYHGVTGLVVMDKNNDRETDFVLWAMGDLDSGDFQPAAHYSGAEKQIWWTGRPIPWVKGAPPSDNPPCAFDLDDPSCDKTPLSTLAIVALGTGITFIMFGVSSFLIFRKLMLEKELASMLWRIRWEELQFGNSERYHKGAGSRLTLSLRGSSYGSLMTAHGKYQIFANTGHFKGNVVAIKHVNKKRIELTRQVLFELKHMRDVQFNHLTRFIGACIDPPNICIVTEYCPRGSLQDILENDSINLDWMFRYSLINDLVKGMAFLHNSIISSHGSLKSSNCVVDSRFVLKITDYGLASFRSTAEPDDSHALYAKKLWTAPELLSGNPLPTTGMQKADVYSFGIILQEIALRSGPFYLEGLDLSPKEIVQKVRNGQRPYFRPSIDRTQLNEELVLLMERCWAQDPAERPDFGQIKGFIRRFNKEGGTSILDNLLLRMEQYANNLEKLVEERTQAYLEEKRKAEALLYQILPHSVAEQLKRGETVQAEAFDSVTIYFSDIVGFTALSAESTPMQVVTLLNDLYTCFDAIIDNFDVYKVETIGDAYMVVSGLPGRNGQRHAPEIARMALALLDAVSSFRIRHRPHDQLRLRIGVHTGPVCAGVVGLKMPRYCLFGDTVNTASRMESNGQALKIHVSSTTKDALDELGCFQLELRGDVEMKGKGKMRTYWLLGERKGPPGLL

B1: JAL-0656 (peptide)
peptide: XXFGLKLDRI
HELM: PEPTIDE1{[CCCCCC(=O)[*:2]].[O=C1[C@@H](N[*:1])CCCCN1CC(=O)[*:2]].F.G.L.K.L.D.R.I.[am]}$$$$V2.0
SMILES: CCCCCC(=O)N[C@H]1CCCCN(CC(=O)N[C@@H](Cc2ccccc2)C(=O)NCC(=O)N[C@@H](CC(C)C)C(=O)N[C@@H](CCCCN)C(=O)N[C@@H](CC(C)C)C(=O)N[C@@H](CC(=O)O)C(=O)N[C@@H](CCCNC(=N)N)C(=O)N[C@H](C(N)=O)[C@@H](C)CC)C1=O
B2: JAL-1438 (peptide)
peptide: Octanoyl-AFLL[Hyp][NMeL]D[Pip′]I-NH2
modifications: also: lower-case ala, leu: meaning not given here
B3: JAL-0653 (peptide)
peptide: XXFGLKLDRI
HELM: PEPTIDE1{[CCCCCC(=O)[*:2]].[O=C([C@H]1CC[C@H](CN[*:1])CC1)[*:2]].F.G.L.K.L.D.R.I.[am]}$$$$V2.0
SMILES: CCCCCC(=O)NC[C@H]1CC[C@H](C(=O)N[C@@H](Cc2ccccc2)C(=O)NCC(=O)N[C@@H](CC(C)C)C(=O)N[C@@H](CCCCN)C(=O)N[C@@H](CC(C)C)C(=O)N[C@@H](CC(=O)O)C(=O)N[C@@H](CCCNC(=N)N)C(=O)N[C@H](C(N)=O)[C@@H](C)CC)CC1
B4: JAL-1435 (peptide)
peptide: Octanoyl-AF[Api]L[Hyp][NMeL]DPI-NH2
modifications: also: lower-case ala: meaning not given here
B5: JAL-1452 (peptide)
peptide: Octanoyl-[dA]F[Api]L[Pro(trans-4-NH2)][NMeL]DPI-NH2
B6: JAL-1463 (peptide)
peptide: Octanoyl-[dA]FXL[Pro(trans-4-NH2)][NMeL]DRI-NH2
modifications: not fully specified (some residues); printed as Occ-ala-Phe-dap(1464)-Leu-Tap-Nml-Asp-Arg-Ile-NH2
B7: JAL-1442 (peptide)
peptide: Octanoyl-AFLL[Hyp][NMeL]D[Thz]I-NH2
modifications: also: lower-case ala, leu: meaning not given here
B8: JAL-1450 (peptide)
peptide: Octanoyl-AFLL[Pro(trans-4-NH2)][NMeL]DPI-NH2
modifications: also: lower-case ala, leu: meaning not given here
B9: JAL-1436 (peptide)
peptide: Octanoyl-[Sni]FLL[Hyp][NMeL]DPI-NH2
modifications: also: lower-case leu: meaning not given here
B10: JAL-0654 (peptide)
peptide: XXFGLKLDRI
HELM: PEPTIDE1{[CCCCCC(=O)[*:2]].[O=C(C1CCCN([*:1])C1)[*:2]].F.G.L.K.L.D.R.I.[am]}$$$$V2.0
SMILES: CCCCCC(=O)N1CCCC(C(=O)N[C@@H](Cc2ccccc2)C(=O)NCC(=O)N[C@@H](CC(C)C)C(=O)N[C@@H](CCCCN)C(=O)N[C@@H](CC(C)C)C(=O)N[C@@H](CC(=O)O)C(=O)N[C@@H](CCCNC(=N)N)C(=O)N[C@H](C(N)=O)[C@@H](C)CC)C1
B11: JAL-1462 (peptide)
peptide: Octanoyl-[dA]FXL[Pro(trans-4-NH2)][NMeL]DRI-NH2
modifications: not fully specified (some residues); printed as Occ-ala-Phe-dap(3846)2-Leu-Tap-Nml-Asp-Arg-Ile-NH2
B12: JAL-1459 (peptide)
peptide: Octanoyl-[dA]F[dL]L[Hyp][NMeL]D[Pro(trans-4-NH2)]I-NH2
B13: JAL-1434 (peptide)
peptide: Octanoyl-AFRL[Hyp][NMeL]DPI-NH2
modifications: also: lower-case ala, arg: meaning not given here
B14: JAL-1443 (peptide)
peptide: Octanoyl-AFLL[Hyp][NMeL]D[Cpp]I-NH2
modifications: also: lower-case ala, leu: meaning not given here
B15: JAL-1456 (peptide)
peptide: Octanoyl-[dA]F[dL]L[Hyp][NMeL]D[Pro(trans-4-Ph)]I-NH2
B16: JAL-1461 (peptide)
peptide: Octanoyl-[dA]FXL[Pro(trans-4-NH2)][NMeL]DRI-NH2
modifications: not fully specified (some residues); printed as Occ-ala-Phe-dap(6238)-Leu-Tap-Nml-Asp-Arg-Ile-NH2
B17: JAL-1458 (peptide)
peptide: Octanoyl-[dA]F[dL]L[Hyp][NMeL]D[Api]I-NH2
B18: JAL-1454 (peptide)
peptide: Octanoyl-[dA]F[Ac6c]L[Pro(trans-4-NH2)][NMeL]DRI-NH2
B19: JAL-1460 (peptide)
peptide: Octanoyl-[dA]FXL[Pro(trans-4-NH2)][NMeL]DRI-NH2
modifications: not fully specified (some residues); printed as Occ-ala-Phe-dap(6238)2-Leu-Tap-Nml-Asp-Arg-Ile-NH2
B20: JAL-1453 (peptide)
peptide: Octanoyl-[dA]F[dDap(Me2)]L[Pro(trans-4-NH2)][NMeL]DPI-NH2
B21: JAL-1457 (peptide)
peptide: Octanoyl-[dA]F[dL]L[Hyp][NMeL]D[Ac6c]I-NH2
B22: JAL-1441 (peptide)
peptide: Octanoyl-AFLL[Hyp][NMeL]D[Hyp]I-NH2
modifications: also: lower-case ala, leu: meaning not given here
B23: JAL-1437 (peptide)
peptide: Octanoyl-AFLL[Hyp][NMeL]D[dAze]I-NH2
modifications: also: lower-case ala, leu: meaning not given here
B24: JAL-1451 (peptide)
peptide: Octanoyl-AF[Api]L[Hyp][NMeL]DPI-NH2
modifications: also: lower-case ala: meaning not given here

Molecular target: T1, natriuretic peptide receptor-B
Test: cell-based or functional assay

Binder | EC50 group, cGMP in GTM-3 cells [µM]
B1 | ≤ 15
B2 | ≤ 5
B3 | ≤ 15
B4 | ≤ 5
B5 | ≤ 1
B6 | ≤ 1
B7 | ≤ 5
B8 | ≤ 5
B9 | ≤ 5
B10 | ≤ 15
B11 | ≤ 5
B12 | ≤ 15
B13 | ≤ 5
B14 | ≤ 5
B15 | ≤ 15
B16 | ≤ 5
B17 | ≤ 5
B18 | ≤ 1
B19 | ≤ 5
B20 | ≤ 1
B21 | ≤ 15
B22 | ≤ 15
B23 | ≤ 5
B24 | ≤ 5
